Measured values taken from PMC7334434.

Biological target: 14-3-3β (UniProt P31946)
Assay: co-IP
Conditions: reference: wild type

Row | Substance | binding against the reference (sites S138) | binding against the reference (sites S142)
1 | TFEB (from UniProt P19484) S138A | weaker | 
2 | TFEB (from UniProt P19484) S142A |  | weaker
